Test results taken from patent publication US20220056125A1 (CEPHALON, published 2022).
Where a chain is given by its changes, count along the chain named.

T1: human PAR-2 (human, UniProt P55085 26-397)
T1 sequence: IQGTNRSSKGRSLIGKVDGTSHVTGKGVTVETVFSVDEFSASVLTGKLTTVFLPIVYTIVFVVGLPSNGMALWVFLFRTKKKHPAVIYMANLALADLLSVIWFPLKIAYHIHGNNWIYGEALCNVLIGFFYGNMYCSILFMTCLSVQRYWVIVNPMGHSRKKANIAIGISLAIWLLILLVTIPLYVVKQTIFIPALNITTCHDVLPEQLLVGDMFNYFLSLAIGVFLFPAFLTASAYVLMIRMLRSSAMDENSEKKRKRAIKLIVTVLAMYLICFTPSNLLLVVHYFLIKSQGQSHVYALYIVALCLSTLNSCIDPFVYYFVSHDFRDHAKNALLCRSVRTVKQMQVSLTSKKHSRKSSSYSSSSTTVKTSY

B1: P24E283 (antibody, human IgG4 S228P, kappa, V domains shown)
VH: QVQLVQSGAEVKKPGSSVKVSCKASGFSLNSYAVIWVRQAPGQGLEWMGVIWGNGNTYYAQKFQGRVTITADESTSTAYMELSSLRSEDTAVYYCARWRGYKDYPFDYWGQGTLVTVSS
VL: EIVLTQSPATLSLSPGERATLSCKASQNIYKYLDWYQQKPGQAPRLLIYNTNSLATGIPARFSGSGSGRDFTLTISSLEPEDFAVYYCLQHNSGWTFGGGTKVEIKR
B2: P24E292 (antibody, human IgG4 S228P, kappa, V domains shown)
VH: B1 VH with A33G, V34I
VL: B1 VL with L54R
B3: P24E286 (antibody, human IgG4 S228P, kappa, V domains shown)
VH: B1 VH
VL: B1 VL with T51A
B4: P24E287 (antibody, human IgG4 S228P, kappa, V domains shown)
VH: B1 VH
VL: B1 VL with L54R
B5: P24E300 (antibody, human IgG4 S228P, kappa, V domains shown)
VH: B1 VH with N30S, V34I, I35S, Y101W
VL: B1 VL with Y32W
B6: P24E297 (antibody, human IgG4 S228P, kappa, V domains shown)
VH: B1 VH with V34I, I35S
VL: B1 VL with L54R
B7: P24E293 (antibody, human IgG4 S228P, kappa, V domains shown)
VH: B1 VH with V34I, I35S
VL: B1 VL
B8: P24E291 (antibody, human IgG4 S228P, kappa, V domains shown)
VH: B1 VH with A33G, V34I
VL: B1 VL with T51A
B9: P24E288 (antibody, human IgG4 S228P, kappa, V domains shown)
VH: B1 VH with A33G, V34I
VL: B1 VL
B10: P24E294 (antibody, human IgG4 S228P, kappa, V domains shown)
VH: B1 VH with V34I, I35S
VL: B1 VL with K24R
B11: P24E298 (antibody, human IgG4 S228P, kappa, V domains shown)
VH: B1 VH with N30S, V34I, I35S
VL: B1 VL with Y32W
B12: P24E290 (antibody, human IgG4 S228P, kappa, V domains shown)
VH: B1 VH with A33G, V34I
VL: B1 VL with I29V
B13: P24E295 (antibody, human IgG4 S228P, kappa, V domains shown)
VH: B1 VH with V34I, I35S
VL: B1 VL with I29V
B14: P24E289 (antibody, human IgG4 S228P, kappa, V domains shown)
VH: B1 VH with A33G, V34I
VL: B1 VL with K24R
B15: P24E285 (antibody, human IgG4 S228P, kappa, V domains shown)
VH: B1 VH
VL: B1 VL with I29V
B16: P24E284 (antibody, human IgG4 S228P, kappa, V domains shown)
VH: B1 VH
VL: B1 VL with K24R
B17: P24E296 (antibody, human IgG4 S228P, kappa, V domains shown)
VH: B1 VH with V34I, I35S
VL: B1 VL with T51A

biological target: T1, human PAR-2; assay: cell-based or functional assay

PAR-2 β-arrestin cell based assay IC50, 2 µM SLIGKV [nM]	Binder
3.6	B1
1.2	B2
2.1	B3
2.2	B4
1.3	B5
3	B6
2	B7
3.1	B8
1.4	B9
2.9	B10
1.47	B11
2.2	B12
1.6	B13
2.6	B14
2.3	B15
2.5	B16
2.4	B17
